Measured values from doi:10.1101/2020.01.08.898304 (bioRxiv, 2020).

Key:
[1] = molecular target: T1, Jacob (recombinant protein used for ITC) (UniProt Q9EPI6 1-532); assay: ITC
T1 sequence (looked up): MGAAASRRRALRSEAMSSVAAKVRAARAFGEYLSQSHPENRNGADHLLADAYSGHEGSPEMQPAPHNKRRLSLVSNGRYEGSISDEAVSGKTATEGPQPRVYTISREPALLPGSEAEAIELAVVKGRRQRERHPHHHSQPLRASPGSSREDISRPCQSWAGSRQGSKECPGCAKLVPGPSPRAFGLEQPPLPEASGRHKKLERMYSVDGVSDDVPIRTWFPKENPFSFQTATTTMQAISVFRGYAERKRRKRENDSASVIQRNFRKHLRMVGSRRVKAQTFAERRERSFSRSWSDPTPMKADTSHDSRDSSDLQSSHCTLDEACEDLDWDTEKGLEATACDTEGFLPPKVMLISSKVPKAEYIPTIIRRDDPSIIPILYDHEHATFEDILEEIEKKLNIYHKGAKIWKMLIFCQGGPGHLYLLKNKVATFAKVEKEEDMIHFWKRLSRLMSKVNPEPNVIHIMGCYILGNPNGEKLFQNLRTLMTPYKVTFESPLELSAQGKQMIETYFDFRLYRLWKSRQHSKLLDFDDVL

[2] = molecular target: T2, MBP-Jacob-45-228-180A (UniProt Q9EPI6 45-228, S180A); assay: pull-down
T2 sequence (looked up): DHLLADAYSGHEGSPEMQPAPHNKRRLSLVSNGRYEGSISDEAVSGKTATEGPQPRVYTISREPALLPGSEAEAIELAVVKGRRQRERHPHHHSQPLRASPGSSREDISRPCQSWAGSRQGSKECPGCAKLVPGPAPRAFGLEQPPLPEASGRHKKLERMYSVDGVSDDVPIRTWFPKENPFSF

[3] = molecular target: T3, MBP-Jacob-45-228 (UniProt Q9EPI6 45-228); assay: pull-down
T3 sequence (looked up): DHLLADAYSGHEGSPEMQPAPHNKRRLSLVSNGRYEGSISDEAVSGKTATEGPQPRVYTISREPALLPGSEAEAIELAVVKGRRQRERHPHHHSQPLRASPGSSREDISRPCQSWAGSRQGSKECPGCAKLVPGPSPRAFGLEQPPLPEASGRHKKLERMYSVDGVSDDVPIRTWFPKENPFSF

B1: GST-LMO4 (natural protein, UniProt P61968 1-165, looked up)
chain: MVNPGSSSQPPPVTAGSLSWKRCAGCGGKIADRFLLYAMDSYWHSRCLKCSCCQAQLGDIGTSCYTKSGMILCRNDYIRLFGNSGACSACGQSIPASELVMRAQGNVYHLKCFTCSTCRNRLVPGDRFHYINGSLFCEHDRPTALINGHLNSLQSNPLLPDQKVC
With B1 the Kd [1] was 370 nM, the binding result [2] was “binds” and the binding result [3] was “binds”.
